Assay results as given in patent publication US20170246255.

Tests used:
[1] = test system: T1, model thrombin substrate peptide WALAPRSFA
T1 sequence: WALAPRSFA

[2] = test system: T2, model peptide analog WALAPRXFA (X = tertiary leucine)
T2 sequence: WALAPRXFA

In the case of thrombin, the “cleavage of the peptide by the enzyme, C18 reverse phase HPLC and mass spectra after 4 hours at 23° C. with 10 nM thrombin” value [1] is reported as “unmodified peptide was efficiently cleaved by thrombin to yield the cleavage product WALAPR” and the “cleavage of the peptide by the enzyme, C18 reverse phase HPLC and mass spectra after 4 hours at 23° C. with 10 nM thrombin” value [2] is reported as “the TLE substituted peptide analog was not cleaved by thrombin under these conditions”.
